Test results as given in patent publication US20210396744A1.

Columns and labels:
IgG [1] = assay: sandwich liposome assay: IgG at 50 nM captured by DNA aptamer on silicon supporter, FcIII peptide liposomes bound, washed, UV-triggered release of pH 8.5 buffer, change of surface potential read (SD 2.87 mV)
IgG [2] = assay: sandwich liposome assay: IgG at 10 nM captured by DNA aptamer on silicon supporter, FcIII peptide liposomes bound, washed, UV-triggered release of pH 8.5 buffer, change of surface potential read (SD 0.62 mV)

Substance: FcIII peptide
- surface potential variation (IgG [1]): -10.6 mV
- surface potential variation (IgG [2]): -3.75 mV
